Read-outs that look alike come from different tables or passages of the source. Marks after values point to notes of the source that are not given here.
Experiments:
[1] = Method: Eight homologs that were predicted to be glucose-binding proteins (FIG. 4, Table 3) were selected to probe different degrees of sequence identity to the ttGBP1 seed, and their glucose-binding properties were determined experimentally. These experiments comprised four successive steps: • 1. Synthetic gene construction. The amino acid sequence of the homology leads were backtranslated into DNA sequences. These were optimized for directing heterologous cytoplasmic expression of the protein homologues in E. coli, using either the OrfOpt or OrfMorph programs. These programs predict mRNA sequences that direct high-level protein expression in E. coli. The predicted gene sequences were assembled de novo from synthetic oligonucleotides. • 2. Heterologous protein expression of the homologues in E. coli. Plasmids carrying the synthetic expression constructs (see above) were transformed into KRX competent cells (Promega). Protein production was induced in bacterial cultures of these cultures, as described in the Materials and Methods. • 3. Purification of successfully expressed protein using immobilized metal affinity chromatography. • 4. Verification of glucose binding. Determination of the glucose-binding properties of the purified proteins using a thermal stability shift assay.
Analysis of glucose-binding properties using thermal melts. The thermal stability of purified GBP candidate proteins was determined by measuring the temperature-dependence of the fluorescence signal of an extrinsically added dye, SYPRO, using a Roche LightCycler (Layton and Hellinga, 2010, Biochemistry, 49, 10831-41). The total fluorescence intensity, S, is given by S=βFfF+βUfU 11 where fF and fU are the fractions of protein in the folded and unfolded states, respectively, and βF and βU the fluorescence baselines of these two states. To get the fractions of the two states, we have
[formula] where KU(T) is the temperature-dependent unfolding equilibrium constant, which by the van't Hoff approximation is given by
[formula] Where T is the temperature, Tm, the unfolding reaction transition mid-point temperature, and ΔHU the enthalpy of unfolding.

[2] = Ratiometric fluorescence glucose titration of fluorescent conjugates; type: binding; set-up: key to Shape (fluorescence response to glucose) / Change (fluorescence response to glucose): m, monochromatic; d, dichromatic (i.e. spectral shape change); 0, no change; settings: tsGBP 13C affinity mutants, Acrylodan or Badan conjugates
How it was run: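 Single-cysteine glucose-binding protein mutants labelled site-specifically with thiol-reactive environmentally sensitive fluorophores; emission spectra recorded during glucose titration to detect ligand-mediated intensity and spectral-shape changes for ratiometric read-out. Temperature- and ligand-dependent fluorescence landscapes acquired in 1K steps; binding fitted to single-site fractional saturation.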

[3] = ligand-free protein, SYPRO Orange, Roche LightCycler

B1: smGBP7: glucose-binding protein from Staphylothermus marinus, SEQ ID NO: 15 (protein)
chain: MELVIYHWWTAGGEREAINAVFQVFKQKYPNIQIVENPVAGGAGSVMKSVIIGLLAAGTPPDTFQVHAGAELKEYVDAGYLAPIDDIWSKLGLDKVIPSTLQVMAKFNGHYYAVPIDVHRSNVLWYNPKIFNELGIINKFGDPRNWSVDTLLQVARYIKQQRPDIAPIALASRNKWPVTHLFEVLLANAGGPETYVKFFTGKFNYNDPNDPVVQTVKKVLTVMATMAKEGLFNSNHPELTWDQAAALVAEGKAAMFIHGDWVAGYYIANNYKYGKDWAAAPFPKNIFILLSDAFELPKNAPHPEAAKDWLMVVGSKEAQEKFNLIKGSIPARTDVSPKYPDPYRPETAEDFQKSTLIPSAVHGGIAKEAFMTDLHNILTSMLTAVSVGTPVDNAVNTALAQILQSVKTSGLASFWKGYTIDYFITKRGGSHHHHHH
modifications: smGBP7 (with signal peptide replaced with M and a GGSHHHHHH at C-terminus)
Thermostability ^apoTm ([1]; determined using fluorescent Acrylodan and/or Badan conjugates): 40^f ° C.

B2: koGBP5: glucose-binding protein from Kosmotoga olearia, SEQ ID NO: 13 (protein)
chain: MLEIFSWWTGGGEEEGLLALFDVFHKYYPDVEIINATVAGGAGTNAKAVLKTRMLGGNPPDSFQVHGGMELIDTYVVTGMMEPITDLLEEWGIIDKFPEDILKIASYKGEVYSIPVNVHRGNVVFYNKAILEEVGIEKVPSTWPEFIEVLKKIKKAGYIPLALGDKNKWTATHLFEDILLSTLGPYNYNGLWNGRTSFEHQGVKEALEIFKELMNYVNPNHASLTWQDATLLVFEGKAAFNVMGDWAEGYLKTLGWTPGKEFGWMVVPGTKGSFMVVTDTFGLPKNAPHRENAIKWLKIISSVEGQDTFNPIKGSIPARIDADRSLYDDYLIWSMDDFATNALCPSIIHGSAAPEAFVTALNDTINMFITRKDVKKALKEIIYAAEDYLEGGSHHHHHH
modifications: koGBP5 (with signal peptide replaced with M and a GGSHHHHHH at C-terminus)
Thermostability ^apoTm [1, 3]: >100 °C

B3: tnGBP4: glucose-binding protein from Thermotoga neapolitana, SEQ ID NO: 12 (protein)
chain: MLEIFSWWTAGGEAEALEALIKVFNKYYPDVEVINATVAGGAGTNAKAVLKTRILGGNPPDSFQVHAGMELIDTYVIPGYMTPITNLLEQWGVMDKFPKGILEMASYEGEIYSIPVNVHRGNVVFYNKKIAEEIGMNEPPKTWDEFIMYLQKAKEKGYVGLALGDKNKWTALHLFETILLGVLGPNDYNGLWKGEVSFNDPRIRRAFEIMNKLLDYVNEDHAALAWQDATRLVYEGKALANVMGDWAEGYLKSVGWEPGKDFGWFAVPETQNAFMVVSDTFGLPKNAPHKENAVKWLKVVASVEGQDAFNPIKGSIPARLDADRSKYDIYLQWSMEDFATKALTPSIAHGSAAPEGFVTTLNDIINRFVTTRDIDSALEELLMAAEDEGYLVEGGSHHHHHH
modifications: tnGBP4 (with signal peptide replaced with M and a GGSHHHHHH at C-terminus)
Thermostability ^apoTm [1, 3]: >100 °C

B4: D278L A: tsGBP2.13C.D278L (SEQ ID NO: 52) Acrylodan conjugate (conjugate)
chain: MKLEIFSWWAGDCGPALEALIRLYKQKYPGVEVINATVTGGAGVNAKAVLKTRMLGGDPPDTFQVHAGQELIGTWVVADRMEDLTSLFRQEGWLQAFPKGLIDLLSYKGGIWSVPVNIHRSNVMWYIPAKLKEWGVTPPKTWAEFLATAQTLKRKGLEAPLALGENWTQQHLWESVALATLGADGWNNLWSGKLKFTDPKAVAVWETFGKVLDAANKDAAGLSWQQAVDRVVQGKAAFNIMGDWAAGYMSTTLKLKPGTDFAWTPSPGTSGIFMMLSLSFGLPKGAKNRQNAINWLKLVGSKEGQDTFNPLKGSIAARLDSDPAKYNAYGQSAMKDWKSNRIVGSLVHGAVAPESFMSQFGTVMEIFLQSRNPQAAANAAQAIANQVGLGRGGSHHHHHH
modifications: Acrylodan conjugate; tsGBP2.13C.D278L (13C, 278L double substitution mutant with signal peptide replaced with M and a GGSHHHHHH at C-terminus)
Change (fluorescence response to glucose) [2]: m

B5: D278L B: tsGBP2.13C.D278L (SEQ ID NO: 52) Badan conjugate (conjugate)
chain: MKLEIFSWWAGDCGPALEALIRLYKQKYPGVEVINATVTGGAGVNAKAVLKTRMLGGDPPDTFQVHAGQELIGTWVVADRMEDLTSLFRQEGWLQAFPKGLIDLLSYKGGIWSVPVNIHRSNVMWYIPAKLKEWGVTPPKTWAEFLATAQTLKRKGLEAPLALGENWTQQHLWESVALATLGADGWNNLWSGKLKFTDPKAVAVWETFGKVLDAANKDAAGLSWQQAVDRVVQGKAAFNIMGDWAAGYMSTTLKLKPGTDFAWTPSPGTSGIFMMLSLSFGLPKGAKNRQNAINWLKLVGSKEGQDTFNPLKGSIAARLDSDPAKYNAYGQSAMKDWKSNRIVGSLVHGAVAPESFMSQFGTVMEIFLQSRNPQAAANAAQAIANQVGLGRGGSHHHHHH
modifications: Badan conjugate; tsGBP2.13C.D278L (13C, 278L double substitution mutant with signal peptide replaced with M and a GGSHHHHHH at C-terminus)
Change (fluorescence response to glucose) [2]: 0

B6: K312M B: tsGBP2.13C.K312M (SEQ ID NO: 53) Badan conjugate (conjugate)
chain: MKLEIFSWWAGDCGPALEALIRLYKQKYPGVEVINATVTGGAGVNAKAVLKTRMLGGDPPDTFQVHAGQELIGTWVVADRMEDLTSLFRQEGWLQAFPKGLIDLLSYKGGIWSVPVNIHRSNVMWYIPAKLKEWGVTPPKTWAEFLATAQTLKRKGLEAPLALGENWTQQHLWESVALATLGADGWNNLWSGKLKFTDPKAVAVWETFGKVLDAANKDAAGLSWQQAVDRVVQGKAAFNIMGDWAAGYMSTTLKLKPGTDFAWTPSPGTSGIFMMLSDSFGLPKGAKNRQNAINWLKLVGSKEGQDTFNPLMGSIAARLDSDPAKYNAYGQSAMKDWKSNRIVGSLVHGAVAPESFMSQFGTVMEIFLQSRNPQAAANAAQAIANQVGLGRGGSHHHHHH
modifications: Badan conjugate; tsGBP2.13C.K312M (13C, 312M double substitution mutant with signal peptide replaced with M and a GGSHHHHHH at C-terminus)
Kd ([2]; read-out: Glucose affinity ^appKd): 26 mM | Kd ([2]; read-out: Glucose affinity ^trueKd): 39 mM | Change (fluorescence response to glucose) [2]: m

B7: bhGBP6: glucose-binding protein from Bacillus halodurans, SEQ ID NO: 14 (protein)
chain: MLEIFSWWTGAGEEDGLLALIELFEEKHPEIEVDNAAVAGGAGTNAKAVLTSRMQGNDPPGTFQVHGGAELNDSWVAAGQMDPLNDLFEAEGWADKFPEELIELVSKDGNIYSVPVNIHRGNVLWYNTEIFEEHGLEVPTTFEEFFDVADALQEAGVTPLALGDREPWAATHLFETVLLGTLGADDYNKLWSGEVGMDDPRVEEAAEIFIRMLDYVNEDHSSRNWQDASQLVAQGEAAMNVMGDWAKGYFVNDLNLAVKEDFGWAATPGTEGTFMVITDTFGLPTGVENPEVVKSFLAVLGSQEGQDAFNPLKGSIPARVDADVSKYDEYGQETIEDFKSAELSPSLAHGSAANEGFLTQVNQAINIFVTQKDVDSFVDSLKQYQPGGSHHHHHH
modifications: bhGBP6 (with signal peptide replaced with M and a GGSHHHHHH at C-terminus)
Thermostability ^apoTm [1, 3]: 53 °C

B8: asGBP8: glucose-binding protein from Arthrobacter sp., SEQ ID NO: 16 (protein)
chain: MKLEITSWWTSGSEADALNVLIDGVKAAKPGLSVDNAAVSGGGGANARQALAARLQAGSPPDAWQVHPAGQLKSYVDGGQVADLTDLWTEGDWASQMPKDVAEAQQVDGKYYTVPIGVHRGNVLWTNPAVLSKANVTIDADAGIDGLISSLEQVQASGTTPLALGDKDIFASSQLLESLIMSRAGADNWTKLFTSEYSFDAPEVKQALEDYKTILSFANKDHSAITWDEAAKKMADGEAAVNLMGDWAYGELLNAGKKPGTDFAWVAFPGKEDIFDYVGDGFSIPANNIPHAEAARAWLKTLMDPKIQTEFAAKKGSIPAVTSADISGLSEYQQEAAKSLASGAVVSSLAHAQAAGAEFAQTYADAVSTFNGSGNTDAFIASMTQAQKTQLGGSHHHHHH
modifications: asGBP8 (with signal peptide replaced with M and a GGSHHHHHH at C-terminus)
Thermostability ^apoTm [1, 3]: 58 °C

From patent US11402384B2 (Duke University, priority 2015, dated 2022)
